Experimental data taken from US20210032365A1 (Chugai, published 2021).
Numbering of substitutions follows the chain as printed.

Key:
Serum-derived human C1s [1] = biological target: T1, Serum-derived human C1s (human, UniProt P09871 16-688); test: SPR Biacore T200, 37 C, ratio of KD pH 5.8 / pH 7.4, 1.2 mM CaCl2
T1 construct: The analyte was C1s purified from serum; also called hC1s
T1 sequence: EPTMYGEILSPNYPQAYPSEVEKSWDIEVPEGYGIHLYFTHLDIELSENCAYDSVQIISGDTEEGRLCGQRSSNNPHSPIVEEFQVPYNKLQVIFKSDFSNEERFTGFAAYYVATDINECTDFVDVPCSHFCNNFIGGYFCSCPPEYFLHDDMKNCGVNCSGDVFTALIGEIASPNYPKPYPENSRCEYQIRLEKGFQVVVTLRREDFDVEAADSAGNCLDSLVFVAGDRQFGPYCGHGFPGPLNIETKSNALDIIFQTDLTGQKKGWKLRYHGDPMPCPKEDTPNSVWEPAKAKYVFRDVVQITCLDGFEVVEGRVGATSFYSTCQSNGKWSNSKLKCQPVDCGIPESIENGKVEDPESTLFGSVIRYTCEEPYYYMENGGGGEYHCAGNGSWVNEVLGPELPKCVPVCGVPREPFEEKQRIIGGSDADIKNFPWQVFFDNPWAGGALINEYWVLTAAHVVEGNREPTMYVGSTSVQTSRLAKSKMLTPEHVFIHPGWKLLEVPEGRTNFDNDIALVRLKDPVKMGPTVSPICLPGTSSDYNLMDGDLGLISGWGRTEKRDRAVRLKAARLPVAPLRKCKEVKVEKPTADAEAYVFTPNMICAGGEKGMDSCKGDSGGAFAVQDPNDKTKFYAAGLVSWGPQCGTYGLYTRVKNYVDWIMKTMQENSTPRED
Method: (§1) The binding affinity of all histidine-substituted variants at pH 7.4 and pH 5.8 were determined at 37 degrees C. using Biacore T200 instrument (GE Healthcare). Recombinant Protein A/G (Pierce) was immobilized onto all flow cells of a CM4 sensor chip using amine coupling kit (GE Healthcare). Antibodies and analytes were prepared in 7(+) buffer (20 mM ACES, 150 mM NaCl, 1.2 mM CaCl2, 0.05% Tween 20, 0.005% NaN3, pH 7.4) or 5(+) buffer (20 mM ACES, 150 mM NaCl, 1.2 mM CaCl2), 0.05% Tween 20, 0.005% NaN3, pH 5.8). Each antibody was captured onto the sensor surface by protein A/G. Antibody capture levels were aimed at 200 resonance unit (RU). […] Sensor surface was regenerated each cycle with 10 mM Glycine-HCl pH 1.5. […] An additional dissociation phase at pH 5.8 was integrated immediately after the dissociation phase at pH 7.4. This dissociation rate in 5(+) buffer was determined by processing and fitting data using Scrubber 2.0 (BioLogic Software) curve fitting software. […]

Serum-derived human C1s [2] = biological target: T1, Serum-derived human C1s; test: SPR Biacore T200, 37 C, ratio of dissociation rates pH 5.8 / pH 7.4, 1.2 mM CaCl2
Method: (§2) The binding affinity of all histidine-substituted variants at pH 7.4 and pH 5.8 were determined at 37 degrees C. using Biacore T200 instrument (GE Healthcare). Recombinant Protein A/G (Pierce) was immobilized onto all flow cells of a CM4 sensor chip using amine coupling kit (GE Healthcare). Antibodies and analytes were prepared in 7(+) buffer (20 mM ACES, 150 mM NaCl, 1.2 mM CaCl2, 0.05% Tween 20, 0.005% NaN3, pH 7.4) or 5(+) buffer (20 mM ACES, 150 mM NaCl, 1.2 mM CaCl2), 0.05% Tween 20, 0.005% NaN3, pH 5.8). Each antibody was captured onto the sensor surface by protein A/G. Antibody capture levels were aimed at 200 resonance unit (RU). […] Sensor surface was regenerated each cycle with 10 mM Glycine-HCl pH 1.5. […] An additional dissociation phase at pH 5.8 was integrated immediately after the dissociation phase at pH 7.4. This dissociation rate in 5(+) buffer was determined by processing and fitting data using Scrubber 2.0 (BioLogic Software) curve fitting software.

Serum-derived human C1s [3] = biological target: T1, Serum-derived human C1s; test: SPR Biacore T200, 37 C, antibody captured on protein A/G, pH 7.4, 1.2 mM CaCl2
Method: as §2

Serum-derived human C1s [4] = biological target: T1, Serum-derived human C1s; test: SPR Biacore T200, 37 C, antibody captured on protein A/G, pH 5.8, 1.2 mM CaCl2
Method: as §2

human C1s [5] = biological target: T2, human C1s (human, UniProt P09871 16-688); test: SPR; KD at pH 5.8 over KD at pH 7.4, both 1.2 mM Ca
T2 construct: Analyte in the Biacore assays; also called hC1s; serum-derived human C1s (CompTech)
T2 sequence: T1 sequence
Method: as §1

human C1s [6] = biological target: T2, human C1s; test: SPR (Biacore T200, 37C), Ab captured on protein A/G, serum C1s 12.5 and 50 nM; pH 7.4, 1.2 mM Ca
Method: as §2

human C1s [7] = biological target: T2, human C1s; test: SPR; koff (5.8+ of 775+): extra dissociation phase at pH 5.8 (1.2 mM Ca) right after the pH 7.4 dissociation, Scrubber fit
Method: as §2

B1: IPN92H0033/IPN93L0024-SG136 (antibody, human IgG1, kappa)
heavy: EVMLVESGGGLVKPGGSLRLSCAASGFTFSNYAMSWVRQAPGKGLEWVATISSGGSHTYYLDSVKGRFTISRDNSKDTLYLQMNSLRAEDTALYYCARLFTGHAMDYWGQGTLVTVSSASTKGPSVFPLAPSSKSTSGGTAALGCLVKDYFPEPVTVSWNSGALTSGVHTFPAVLQSSGLYSLSSVVTVPSSSLGTQTYICNVNHKPSNTKVDKKVEPKSCDKTHTCPPCPAPELRRGPSVFLFPPKPKDTLMISRTPEVTCVVVDVSHEDPEVKFNWYVDGVEVHNAKTKPREEQYNSTYRVVSVLTVLHQDWLNGKEYKCKVSNKGLPSSIEKTISKAKGQPREPQVYTLPPSREEMTKNQVSLTCLVKGFYPSDIAVEWESNGQPENNYKTTPPVLDSDGSFFLYSKLTVDKSRWQQGNVFSCSVMHEALHNHYTQKSLSLSP
light: QIVLTQSPATLSLSPGERATLSCTASSSVSSSYLHWYQQKPGKAPKLWIYSTSNLASGVPSRFSGSGSGTDYTLTISSLQPEDFATYYCHQYYRLHPITFGQGTKLEIKRTVAAPSVFIFPPSDEQLKSGTASVVCLLNNFYPREAKVQWKVDNALQSGNSQESVTEQDSKDCTYSLSSTLTLSKADYEKHKVYACEVTHQGLSSPVTKSFNRGEC
Serum-derived human C1s [1]
  KD (5.8+)/KD (7.4+): 4.7
Serum-derived human C1s [2]
  koff (5.8+ of 775+)/koff (7.4+): 5.1
Serum-derived human C1s [3]
  kon: 227000 M⁻¹ s⁻¹
Serum-derived human C1s [4]
  koff: 0.0031 s⁻¹
  kon: 261000 M⁻¹ s⁻¹

B2: IPN009VH2/IPN009VK3-SG136 (antibody, human IgG1, kappa)
heavy: B1 heavy with H103Y
light: B1 light with H96P
notes: also called IPN009VH2/IPN009VK3 (lot PPU2040)
Human C1s [5]
  KD (5.8+)/KD (7.4+): 0.4
Human C1s [6]
  koff: 0.000411 s⁻¹
Human C1s [7]
  koff: 8.86e-05 s⁻¹

B3: IPN92H0288/IPN93L0211-SG136 (antibody, human IgG1, kappa)
heavy: B1 heavy with Y60E, K65D, G102K
light: B1 light with S28E, S31E
Serum-derived human C1s [1]
  KD (5.8+)/KD (7.4+): 74.9
Serum-derived human C1s [2]
  koff (5.8+ of 775+)/koff (7.4+): 54.2
Serum-derived human C1s [3]
  kon: 469000 M⁻¹ s⁻¹
Serum-derived human C1s [4]
  koff: 0.0194 s⁻¹
  kon: 233000 M⁻¹ s⁻¹

B4: IPN92H0288/IPN93L0058-SG136 (antibody, human IgG1, kappa)
heavy: B1 heavy with Y60E, K65D, G102K
light: B1 light with S28E
notes: also called IPN92H0288/IPN93L0058 (lot PPU2050)
Human C1s [5]
  KD (5.8+)/KD (7.4+): 65.6
Human C1s [6]
  koff: 0.000408 s⁻¹
Human C1s [7]
  koff: 0.0158 s⁻¹

B5: IPN92H0307/IPN93L0058-SG136 (antibody, human IgG1, kappa)
heavy: B1 heavy with T28E, S30E, Y60E, K65D, G102K
light: B1 light with S28E
notes: also called IPN92H0307/IPN93L0058 (lot PPU2051)
Human C1s [5]
  KD (5.8+)/KD (7.4+): 28.4
Human C1s [6]
  koff: 0.000523 s⁻¹
Human C1s [7]
  koff: 0.0151 s⁻¹

B6: IPN92H0038/IPN93L0024-SG136 (antibody, human IgG1, kappa, name in Kabat numbering)
heavy: B1 heavy with G66H
light: B1 light
notes: Substitutions are numbered by Kabat
Serum-derived human C1s [1]
  KD (5.8+)/KD (7.4+): 8.9
Serum-derived human C1s [2]
  koff (5.8+ of 775+)/koff (7.4+): 7.7
Serum-derived human C1s [3]
  Kd: 1.2 nM
  kon: 384000 M⁻¹ s⁻¹
Serum-derived human C1s [4]
  Kd: 10.7 nM
  koff: 0.00309 s⁻¹
  kon: 289000 M⁻¹ s⁻¹

B7: IPN009VH2/IPN93L0021-SG136 (antibody, human IgG1, kappa, name in Kabat numbering)
heavy: B1 heavy with H103Y
light: B1 light with Y93H, H96P
notes: also called IPN009VH2/IPN93L0021 (lot PPU2042)
Human C1s [5]
  KD (5.8+)/KD (7.4+): 1.5
Human C1s [6]
  koff: 0.00058 s⁻¹
Human C1s [7]
  koff: 0.0011 s⁻¹

B8: IPN92H0033/IPN93L0024-SG136 (antibody, human IgG1, kappa)
heavy: B1 heavy
light: B1 light
notes: also called IPN92H0033/IPN93L0024 (lot PPU2046)
Human C1s [5]
  KD (5.8+)/KD (7.4+): 4.7
Human C1s [6]
  koff: 0.000571 s⁻¹
Human C1s [7]
  koff: 0.0029 s⁻¹

B9: IPN92H0281/IPN93L0024-SG136 (antibody, human IgG1, kappa, name in Kabat numbering)
heavy: B1 heavy with H57K, Y60E, K65D, G66E, G102K
light: B1 light
notes: as for B6
Serum-derived human C1s [1]
  KD (5.8+)/KD (7.4+): 60.9
Serum-derived human C1s [2]
  koff (5.8+ of 775+)/koff (7.4+): 38.2
Serum-derived human C1s [3]
  Kd: 2.02 nM
  kon: 319000 M⁻¹ s⁻¹
Serum-derived human C1s [4]
  Kd: 123 nM
  koff: 0.0267 s⁻¹
  kon: 217000 M⁻¹ s⁻¹

B10: IPN92H0288/IPN93L0211-SG136 (antibody, human IgG1, kappa)
heavy: B1 heavy with Y60E, K65D, G102K
light: B1 light with S28E, S31E
notes: also called IPN92H0288/IPN93L0211 (lot PPU2049)
Human C1s [5]
  KD (5.8+)/KD (7.4+): 74.9
Human C1s [6]
  koff: 0.00052 s⁻¹
Human C1s [7]
  koff: 0.0282 s⁻¹

B11: IPN92H0288/IPN93L0058-SG136 (antibody, human IgG1, kappa)
heavy: B1 heavy with Y60E, K65D, G102K
light: B1 light with S28E
Serum-derived human C1s [1]
  KD (5.8+)/KD (7.4+): 65.6
Serum-derived human C1s [2]
  koff (5.8+ of 775+)/koff (7.4+): 38.8
Serum-derived human C1s [3]
  kon: 666000 M⁻¹ s⁻¹
Serum-derived human C1s [4]
  koff: 0.0127 s⁻¹
  kon: 315000 M⁻¹ s⁻¹

B12: IPN92H0307/IPN93L0058-SG136 (antibody, human IgG1, kappa)
heavy: B1 heavy with T28E, S30E, Y60E, K65D, G102K
light: B1 light with S28E
Serum-derived human C1s [1]
  KD (5.8+)/KD (7.4+): 28.4
Serum-derived human C1s [2]
  koff (5.8+ of 775+)/koff (7.4+): 28.8
Serum-derived human C1s [3]
  kon: 391000 M⁻¹ s⁻¹
Serum-derived human C1s [4]
  koff: 0.0121 s⁻¹
  kon: 318000 M⁻¹ s⁻¹

B13: IPN92H0033/IPN009VK3-SG136 (antibody, human IgG1, kappa)
heavy: B1 heavy
light: B1 light with H96P
notes: also called IPN92H0033/IPN009VK3 (lot PPU2041)
Human C1s [5]
  KD (5.8+)/KD (7.4+): 0.9
Human C1s [6]
  koff: 0.00038 s⁻¹
Human C1s [7]
  koff: 0.000265 s⁻¹

B14: IPN009VH2/IPN93L0024-SG136 (antibody, human IgG1, kappa)
heavy: B1 heavy with H103Y
light: B1 light
notes: also called IPN009VH2/IPN93L0024 (lot PPU2044)
Human C1s [5]
  KD (5.8+)/KD (7.4+): 1.3
Human C1s [6]
  koff: 0.000612 s⁻¹
Human C1s [7]
  koff: 0.000741 s⁻¹
